PMC7744550, “Structurally distinct telomere-binding proteins in Ustilago maydis execute non-overlapping functions in telomere replication, recombination, and protection”

Key:
[1] = molecular target: T1, Tay1-FG (Ustilago maydis) (UniProt A0A0D1CTG7); experiment: EMSA; conditions: 25 mM HEPES-KOH pH 7.5, 5% glycerol, 3 mM MgCl2, 0.1 mM EDTA, 1 mM DTT, 0.5 µg/µl BSA, 1-10 nM 32P probe, 22 °C 15 min; 6% native PAGE in 0.2x TBE
T1 sequence: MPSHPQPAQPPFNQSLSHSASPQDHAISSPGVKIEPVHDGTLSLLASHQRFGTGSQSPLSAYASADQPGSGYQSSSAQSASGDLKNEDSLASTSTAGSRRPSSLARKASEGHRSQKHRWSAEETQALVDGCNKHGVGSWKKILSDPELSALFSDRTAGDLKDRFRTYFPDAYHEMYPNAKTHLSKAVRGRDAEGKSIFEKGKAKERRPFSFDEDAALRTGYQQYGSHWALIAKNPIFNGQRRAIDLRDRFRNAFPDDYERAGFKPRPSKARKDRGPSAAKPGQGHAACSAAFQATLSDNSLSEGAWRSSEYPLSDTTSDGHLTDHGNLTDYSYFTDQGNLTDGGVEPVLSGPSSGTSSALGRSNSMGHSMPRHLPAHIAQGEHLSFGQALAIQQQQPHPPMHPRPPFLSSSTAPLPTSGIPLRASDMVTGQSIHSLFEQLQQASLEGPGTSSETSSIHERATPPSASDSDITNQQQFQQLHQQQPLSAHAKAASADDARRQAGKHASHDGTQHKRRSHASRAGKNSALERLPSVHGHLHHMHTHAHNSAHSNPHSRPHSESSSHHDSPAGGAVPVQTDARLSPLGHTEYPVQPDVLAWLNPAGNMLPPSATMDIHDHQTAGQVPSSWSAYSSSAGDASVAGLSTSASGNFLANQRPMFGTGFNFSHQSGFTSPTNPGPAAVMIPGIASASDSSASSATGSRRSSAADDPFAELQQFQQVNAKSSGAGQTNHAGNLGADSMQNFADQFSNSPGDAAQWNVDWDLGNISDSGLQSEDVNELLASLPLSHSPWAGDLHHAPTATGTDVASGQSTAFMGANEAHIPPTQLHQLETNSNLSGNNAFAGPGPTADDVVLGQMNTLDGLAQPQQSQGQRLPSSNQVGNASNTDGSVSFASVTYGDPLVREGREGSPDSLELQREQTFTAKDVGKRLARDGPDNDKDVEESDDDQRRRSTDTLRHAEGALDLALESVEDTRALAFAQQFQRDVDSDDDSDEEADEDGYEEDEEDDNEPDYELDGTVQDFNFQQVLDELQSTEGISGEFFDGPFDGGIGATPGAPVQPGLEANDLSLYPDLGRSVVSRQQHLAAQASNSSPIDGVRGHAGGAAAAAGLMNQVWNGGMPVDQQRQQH

[2] = molecular target: T2, Tay1N274-FG (Ustilago maydis) (UniProt A0A0D1CTG7); experiment: EMSA; conditions: 25 mM HEPES-KOH pH 7.5, 5% glycerol, 3 mM MgCl2, 0.1 mM EDTA, 1 mM DTT, 0.5 µg/µl BSA, 1-10 nM 32P probe, 22 °C 15 min; 6% native PAGE in 0.2x TBE
T2 sequence: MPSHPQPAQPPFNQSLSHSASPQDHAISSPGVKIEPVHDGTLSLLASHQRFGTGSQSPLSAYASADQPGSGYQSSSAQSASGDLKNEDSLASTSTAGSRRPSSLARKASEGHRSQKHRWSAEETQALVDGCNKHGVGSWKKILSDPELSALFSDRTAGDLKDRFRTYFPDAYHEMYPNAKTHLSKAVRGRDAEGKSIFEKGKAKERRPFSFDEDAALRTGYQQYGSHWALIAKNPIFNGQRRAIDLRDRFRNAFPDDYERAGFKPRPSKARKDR

[3] = molecular target: T3, Trf2∆N-FG3 (Ustilago maydis) (UniProt A0A0D1E1Z3); experiment: EMSA; conditions: 25 mM HEPES-KOH pH 7.5, 5% glycerol, 3 mM MgCl2, 0.1 mM EDTA, 1 mM DTT, 0.5 µg/µl BSA, 1-10 nM 32P probe, 22 °C 15 min; 6% native PAGE in 0.2x TBE
T3 sequence: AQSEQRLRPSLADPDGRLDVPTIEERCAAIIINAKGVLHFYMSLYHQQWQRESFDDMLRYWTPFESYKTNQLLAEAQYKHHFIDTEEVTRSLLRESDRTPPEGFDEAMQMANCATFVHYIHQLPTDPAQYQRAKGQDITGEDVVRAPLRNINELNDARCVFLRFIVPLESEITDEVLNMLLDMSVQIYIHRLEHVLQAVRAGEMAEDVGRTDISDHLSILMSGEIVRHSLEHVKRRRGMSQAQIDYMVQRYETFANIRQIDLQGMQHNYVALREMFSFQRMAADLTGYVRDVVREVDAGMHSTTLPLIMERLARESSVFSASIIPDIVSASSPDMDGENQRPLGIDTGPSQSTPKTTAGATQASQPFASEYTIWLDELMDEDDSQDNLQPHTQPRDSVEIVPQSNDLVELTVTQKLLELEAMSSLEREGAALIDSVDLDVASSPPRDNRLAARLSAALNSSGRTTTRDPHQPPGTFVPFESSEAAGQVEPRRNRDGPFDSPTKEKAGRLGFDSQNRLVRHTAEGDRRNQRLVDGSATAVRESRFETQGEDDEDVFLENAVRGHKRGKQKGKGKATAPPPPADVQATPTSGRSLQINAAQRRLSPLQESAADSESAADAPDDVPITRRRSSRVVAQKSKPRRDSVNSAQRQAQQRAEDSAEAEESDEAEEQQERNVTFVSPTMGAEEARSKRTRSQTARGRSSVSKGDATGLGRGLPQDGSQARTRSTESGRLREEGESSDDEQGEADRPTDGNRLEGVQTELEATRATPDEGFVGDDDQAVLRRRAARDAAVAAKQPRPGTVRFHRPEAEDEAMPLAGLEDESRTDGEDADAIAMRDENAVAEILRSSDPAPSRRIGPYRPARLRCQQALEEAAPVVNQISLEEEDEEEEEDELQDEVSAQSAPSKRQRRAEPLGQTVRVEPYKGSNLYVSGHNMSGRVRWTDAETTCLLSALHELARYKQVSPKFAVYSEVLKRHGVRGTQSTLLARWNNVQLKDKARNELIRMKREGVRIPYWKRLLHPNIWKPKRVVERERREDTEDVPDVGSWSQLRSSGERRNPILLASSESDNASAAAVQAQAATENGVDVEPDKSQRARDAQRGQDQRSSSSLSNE

[4] = molecular target: Blm-FG (Ustilago maydis)
[5] = molecular target: Tay1-FG (Ustilago maydis, UniProt A0A0D1CTG7 1-1127); experiment: competition; unlabeled competitor; 25 mM HEPES-KOH pH 7.5, 5% glycerol, 3 mM MgCl2, 0.1 mM EDTA, 1 mM DTT, 0.5 µg/µl BSA, 1-10 nM 32P probe, 22 °C 15 min; 6% native PAGE in 0.2x TBE; conditions: protein: recombinant; tags: C-terminal FLAG (His-SUMO cleaved by ULP1); blunt
[6] = molecular target: Trf2∆N-FG3 (Ustilago maydis, UniProt A0A0D1E1Z3 416-1528); experiment: EMSA; 25 mM HEPES-KOH pH 7.5, 5% glycerol, 3 mM MgCl2, 0.1 mM EDTA, 1 mM DTT, 0.5 µg/µl BSA, 1-10 nM 32P probe, 22 °C 15 min; 6% native PAGE in 0.2x TBE; conditions: protein: recombinant; tags: C-terminal FG3 (His-SUMO cleaved by ULP1)

**Q.** “TTAGGGTTAGGGTTAGGGTTAGGG (double strand) [TTAGGG4 ds]” was tested. Which Kd [1] did it give?
**A.** Its Kd is 27 nM.

**Q.** And the Kd [2]?
**A.** The Kd was 130 nM.

**Q.** And the Kd [3]?
**A.** The Kd was 20 nM.

**Q.** With Tay1-FG (natural protein) as the molecule, how does the helicase activity of Blm (12.5 nM) on a non-telomeric DNA substrate with Tay1 at 0, 10, 30 and 90 nM [4] read?
**A.** Its helicase activity of Blm (12.5 nM) on a non-telomeric DNA substrate with Tay1 at 0, 10, 30 and 90 nM is 2.5 fold.

B1: CgTEL (dsDNA)
DNA 1: TGGGGTCTGGGTGCTG
DNA 2: CAGCACCCAGACCCCA
**Q.** Does B1 bind [5]?
**A.** Result: no binding

B2: TTAGGG4 G-strand (ssDNA)
DNA: TTAGGGTTAGGGTTAGGGTTAGGG
**Q.** Does B2 bind [6]?
**A.** Result: no binding
